Assay results reported in patent publication US12491259B2, “Anti-variable MUC1* antibodies and uses thereof” (Minerva Biotechnologies Corporation, priority 2022, dated 2025).

B1: MN20A10-MMAF (conjugate)
VH: QVQLVESGGGLVKPGGSLRLSCAASGFTFSTYAMSWIRQAPGKGLEWVASIGRAGSTYYSDSVKGRFTISRDNAKNSLYLQMNSLRAEDTAVYYCARGPIYNDYDEFAYWGQGTLVTVSS
VL: EIVLTQSPATLSLSPGERATLSCKSSQSVLYSSNQKNYLAWYQQKPGQAPRLLIYWASTRESGIPARFSGSGSGTDFTLTISSLEPEDFAVYYCHQYLSSLTFGGGTKVEIKR
B2: MNC2-MMAF (conjugate)
VH: EVQLVESGGGLVKPGGSLRLSCAASGFTFSGYAMSWVRQAPGKGLEWVSTISSGGTYIYYPDSVKGRFTISRDNAKNSLYLQMNSLRAEDTAVYYCARLGGDNYYEYFDVWGKGTTVTVSS
VL: DIVLTQSPASLAVSPGQRATITCRASKSVSTSGYSYMHWYQQKPGQPPKLLIYLASNLESGVPARFSGSGSGTDFTLTINPVEANDTANYYCQHSRELPFTFGGGTKVEIKRT
B3: MNC2-Deruxtecan (conjugate)
VH: B2 VH
VL: B2 VL

Legend:
[1] = tested on: NCI-H1975 lung cancer cells; test: xCELLigence real-time killing assay (impedance); format: cell-based, human; conditions: for time course of effect: 40 hours versus 120 hours; for ADC concentration at which essentially all the lung tumor cells were killed: readout 40 hours; for ADC concentration at which essentially all the tumor cells were killed: readout 120 hours post ADC addition
Protocol: FIG. 51A-51I show traces from the real-time killing assays performed on an xCELLigence instrument. In this assay, impedance is measured in real-time. When the adherent cancer cells are killed and come off of the electrode surface, impedance (insulation) decreases. NCI-H1975 lung cancer cells were plated onto multi-electrode-well plates at 5,000 cells per well and allowed to adhere and grow for 24 hours before the addition of ADCs. Either MNC2-MMAE, DAR 4.1, MN20A10-MMAE, DAR 5.8, MNC2-MMAF, DAR 3.7, MN20A10-MMAF, DAR 3.8, MNC2-Deruxtecan, DAR 7.2, or MN20A10-Deruxtecan, DAR 4.6, was then added to the cancer cells. […] Taxol and Triton are added as the positive killing control. […].
FIGS. 56A-56D show traces from the real-time killing assays performed on an xCELLigence instrument. In this assay, impedance is measured in real-time. When the adherent cancer cells are killed and come off of the electrode surface, impedance (insulation) decreases. Here NCI-H1975 non-small cell lung cancer cells that express very low levels of MUC1*, were plated onto multi-electrode 96-well plates at 5,000 cells per well and allowed to adhere and grow for 24 hours before the addition of ADCs. Either MNC2-Exatecan, DAR 8.2, MNC2-Deruxtecan, DAR 4.0, MNC2-MMAE, DAR 4.1, or free Exatecan at 50 μM, was then added to the cancer cells.
(§1) To assess real-time killing of target cancer cells including breast cancer cells (T47D), non-small cell lung cancer cells (NCI-H1975) and pancreatic cancer cells (HP AF II) assays were performed on an xCELLigence RTCA MP Instrument (Agilent). Target Cancer cells were seeded onto a multi-electrode well plate at a density of 5000 cells/well (100 μL of a 50,000 cells/mL stock) and incubated for 24 hr in a 37° C./5% CO2 incubator. mAb MNC2 ADCs or mAb MN20A10-ADCs were prepared as a 2× solution in corresponding growth media and 100 μL of each concentration was added to target cells. As a positive control (100% cell killing) cells were treated with either 1% triton or 1 μM Taxol instead of ADC. After 40-120 hours incubation in a 37° C./5% CO2 incubator cell killing was assessed. In this assay, impedance is measured in real-time. When the adherent cancer cells are killed and come off the electrode surface, impedance (insulation) decreases.
(§2) MNC2-ADCs and MN20A10-ADCs were also assayed for their ability to kill both low and high MUC1* expressing cells by monitoring killing in real-time using an xCELLigence instrument. In the xCelligence system, target cancer cells, which are adherent, are plated onto electrode array 96-well plates. Adherent cells insulate the electrode and increase the impedance. The number of adherent cancer cells is directly proportional to impedance. […] Therefore, increasing impedance reflects the growth of the cancer cells and decreasing impedance reflects the killing of the cancer cells.

[2] = tested on: T47D-MUC1* breast cancer cells; test: xCELLigence real-time killing assay (impedance); format: cell-based, human; conditions: for ADC concentration at which essentially all (near total) tumor cells were killed: readout 120 hours post ADC addition
Protocol: In this assay, impedance is measured in real-time. When the adherent cancer cells are killed and come off of the electrode surface, impedance (insulation) decreases. […] Either MNC2-MMAE, DAR 4.1, MN20A10-MMAE, DAR 5.8, MNC2-MMAF, DAR 3.7, MN20A10-MMAF, DAR 3.8, MNC2-Deruxtecan, DAR 7.2, or MN20A10-Deruxtecan, DAR 4.6, was then added to the cancer cells. […] Taxol and Triton are added as the positive killing control. […] Taxol and Triton are added as the positive killing control.
In this assay, impedance is measured in real-time. When the adherent cancer cells are killed and come off of the electrode surface, impedance (insulation) decreases. […] Either MNC2-Exatecan, DAR 8.2, MNC2-Deruxtecan, DAR 4.0, MNC2-MMAE, DAR 4.1, or free Exatecan at 50 μM, was then added to the cancer cells.
as §1, §2

Molecule	time course of effect [1]	ADC concentration at which essentially all the lung tumor cells were killed [1] [nM]	ADC concentration at which essentially all the tumor cells were killed [1] [nM]	ADC concentration at which essentially all the tumor cells are killed ([2]; readout 40 hours post ADC addition) [nM]	ADC concentration at which essentially all (near total) tumor cells were killed [2] [nM]	concentration as low as which cancer cells are potently killed ([2]; readout 0 to 120 hours, MNC2-Exatecan DAR 8.2, MNC2-Deruxtecan DAR 4.0 (FIG. 55))
B1	stasis at 40 hours, but killing at 120 hours	167	56	56	19	
B2	stasis at 40 hours, but killing at 120 hours	167	56			
B3	stasis at 40 hours, but killing at 120 hours				6	as low as 6.2 nM and even as low as 2.1 nM
